Some targets named below: MyoD full-length (Mus musculus, UniProt P10085 1-318); MyoD ΔR1R2R3 (Mus musculus, UniProt P10085 1-318, del102-104;del110-112;del119-121); MyoD bHLH domain (UniProt P10085 102-162); MyoD R111C (Mus musculus, UniProt P10085 1-318, R111C); MyoD ΔR2R3 (Mus musculus, UniProt P10085 1-318, del110-112;del119-121); MyoD ΔR1R3 (Mus musculus, UniProt P10085 1-318, del102-104;del119-121); MyoD Δ102-114 (UniProt P10085 1-318, del102-114); MyoD ΔR3 (Mus musculus, UniProt P10085 1-318, del119-121).

Common to all, as to assay: EMSA
Background: Mobility shift assays separate free from complexed probe on a gel.

The target in data set [1] is MyoD Δ1-93 (activation and C/H regions deleted) (Mus musculus, UniProt P10085 94-318, del1-93).
In data set [2] the target is MyoD Δ3-56 (activation region deleted) (Mus musculus, UniProt P10085 1-318, del3-56).
For data set [3], the target named is MyoD Δ1-121 (activation, C/H and basic regions deleted) (Mus musculus, UniProt P10085 122-318, del1-121).

B1: E-box DNA (dsDNA)
DNA 1: TCGATCCCCCAACACCTGCTGCCTGA
DNA 2: TCAGGCAGCAGGTGTTGGGGGATCGA
Regarding B1, the binding result in the data set with MyoD full-length is reported as “binds”; with MyoD ΔR1R2R3, “no binding”; with MyoD bHLH domain, “binds”; with MyoD R111C it was “no binding”; with MyoD ΔR2R3 it was “no binding”; in the data set with MyoD ΔR1R3, “no binding”. Moreover, the binding result is “binds” in data set [1]; “no binding” with MyoD Δ102-114; “no binding” in the data set with MyoD ΔR3; “binds” in data set [2]; “no binding” in data set [3].

(Values after publication PMC2175354.)
